The values that follow come from paper doi:10.1101/2025.02.12.637862.

The target in this experiment is biotinylated recombinant SARS-CoV-2 RBD (SARS-CoV-2) (UniProt P0DTC2). As to the kind of experiment: BLI. Background: BLI is a label-free optical method that tracks binding on a fibre tip over time.

Regarding “soluble N. vison ACE2 (domain or fragment)”, the Kd (usually the free concentration of one partner at which half of the binding sites on the other are occupied at equilibrium, for simple one-to-one binding) was 1500 nM.
